Measured values as given in PMC3025051 (Cell cycle (Georgetown, Tex.), 2011).

Biological target: T1, MAL-Myc-tagged Cdc18 wild type (bacterial recombinant) (S. pombe, UniProt P41411 1-577)
T1 sequence (looked up): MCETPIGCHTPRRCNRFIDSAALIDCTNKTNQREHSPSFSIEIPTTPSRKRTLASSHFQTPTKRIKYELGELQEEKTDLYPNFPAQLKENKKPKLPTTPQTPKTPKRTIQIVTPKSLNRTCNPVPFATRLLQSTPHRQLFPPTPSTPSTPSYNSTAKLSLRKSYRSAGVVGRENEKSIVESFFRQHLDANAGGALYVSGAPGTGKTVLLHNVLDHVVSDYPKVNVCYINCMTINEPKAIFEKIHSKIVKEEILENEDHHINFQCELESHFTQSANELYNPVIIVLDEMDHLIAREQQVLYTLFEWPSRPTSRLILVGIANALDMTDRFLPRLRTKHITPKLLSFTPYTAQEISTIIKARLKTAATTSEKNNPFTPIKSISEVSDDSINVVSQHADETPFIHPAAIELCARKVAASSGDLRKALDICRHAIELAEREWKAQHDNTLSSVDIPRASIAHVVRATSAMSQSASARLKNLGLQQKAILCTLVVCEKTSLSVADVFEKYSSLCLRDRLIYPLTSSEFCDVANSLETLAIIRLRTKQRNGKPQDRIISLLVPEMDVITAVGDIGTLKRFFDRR
Assay: pull-down

B1: 6his-FLAG-Swi6 wild type (bacterial recombinant) (natural protein, S. pombe, UniProt P40381 1-328, looked up)
chain: MKKGGVRSYRRSSTSKRSVIDDDSEPELPSMTKEAIASHKADSGSSDNEVESDHESKSSSKKLKENAKEEEGGEEEEEDEYVVEKVLKHRMARKGGGYEYLLKWEGYDDPSDNTWSSEADCSGCKQLIEAYWNEHGGRPEPSKRKRTARPKKPEAKEPSPKSRKTDEDKHDKDSNEKIEDVNEKTIKFADKSQEEFNENGPPSGQPNGHIESDNESKSPSQKESNESEDIQIAETPSNVTPKKKPSPEVPKLPDNRELTVKQVENYDSWEDLVSSIDTIERKDDGTLEIYLTWKNGAISHHPSTITNKKCPQKMLQFYESHLTFRENE
  binding result: binds
